Data from paper PMC11417369, “DNA sequence and chromatin differentiate sequence-specific transcription factor binding in the human malaria parasite Plasmodium falciparum”.

B1: GTGCAC_site10279 (dsDNA)
DNA 1: GCCAATAAAGATGTGGTGCATTATATATATATATAT
DNA 2: ATATATATATATATAATGCACCACATCTTTATTGGC
B2: GTGCAC_site9463 (dsDNA)
DNA 1: ATTAAAAAATCCATAGTGCACTACGATAGGTTCCGA
DNA 2: TCGGAACCTATCGTAGTGCACTATGGATTTTTTAAT
B3: GTGCAC_site10150 (dsDNA)
DNA 1: TTTCCCTCAAATAAAGTGCATTATGATTTTAATTTA
DNA 2: TAAATTAAAATCATAATGCACTTTATTTGAGGGAAA
B4: GTGCAC_site10007 (dsDNA)
DNA 1: TTTCTTTTTTCTTCAGTGCATTAAAATTAACAAAAG
DNA 2: CTTTTGTTAATTTTAATGCACTGAAGAAAAAAGAAA
B5: GTGCAC_site10447 (dsDNA)
DNA 1: TAATGAGCGCTTGTAGTGCATTATATTCAAAAATAT
DNA 2: ATATTTTTGAATATAATGCACTACAAGCGCTCATTA
B6: GTGCAC_site10132 (dsDNA)
DNA 1: AGTGTGTGTAATAAAGTGCATTAAAAATGACACGTA
DNA 2: TACGTGTCATTTTTAATGCACTTTATTACACACACT
B7: GTGCAC_site9852 (dsDNA)
DNA 1: ATAATATATAATATAGTGCATTATTTATTAATTAAT
DNA 2: ATTAATTAATAAATAATGCACTATATTATATATTAT
B8: GTGCAC_site10028 (dsDNA)
DNA 1: ATTATAATTACTCTAGTGCATTATAAATATGAATAA
DNA 2: TTATTCATATTTATAATGCACTAGAGTAATTATAAT
B9: GTGCAC_site9443 (dsDNA)
DNA 1: ACCATATATTAAAAAGTGCATTAAATATATAAATAT
DNA 2: ATATTTATATATTTAATGCACTTTTTAATATATGGT
B10: GTGCAC_site10703 (dsDNA)
DNA 1: TTTTTAATTTCAATGGTGCAGTAATAATATAATAGT
DNA 2: ACTATTATATTATTACTGCACCATTGAAATTAAAAA
B11: GTGCAC_site9607 (dsDNA)
DNA 1: TATTCAGGTCCAATGGTGCAATATATTTTTGTAATA
DNA 2: TATTACAAAAATATATTGCACCATTGGACCTGAATA
B12: GTGCAC_site9803 (dsDNA)
DNA 1: GTAGTAATAAATCTAGTGCATTATATATAACAAAAA
DNA 2: TTTTTGTTATATATAATGCACTAGATTTATTACTAC
B13: GTGCAC_site10160 (dsDNA)
DNA 1: ATTCATTTACCAATGGTGCAATATATTTTTATAATG
DNA 2: CATTATAAAAATATATTGCACCATTGGTAAATGAAT
B14: GTGCAC_site9564 (dsDNA)
DNA 1: GAAAATTTAAAAAGAGTGCATTATATGTTTGAATAT
DNA 2: ATATTCAAACATATAATGCACTCTTTTTAAATTTTC
B15: GTGCAC_site10087 (dsDNA)
DNA 1: TGTCACTACAAATGAGTGCATTAAATAATTTGGAAA
DNA 2: TTTCCAAATTATTTAATGCACTCATTTGTAGTGACA
B16: GTGCAC_site10551 (dsDNA)
DNA 1: ATATATAAAAATTAGGTGCATTAAATTAAAATATAT
DNA 2: ATATATTTTAATTTAATGCACCTAATTTTTATATAT
B17: GTGCAC_site10036 (dsDNA)
DNA 1: TCATAGGGGTAGAAGGTGCAATAAAAAAGAAGAAAA
DNA 2: TTTTCTTCTTTTTTATTGCACCTTCTACCCCTATGA
B18: GTGCAC_site10233 (dsDNA)
DNA 1: TTTTTTAAATTTAAAGTGCATTATTATATATTTGTA
DNA 2: TACAAATATATAATAATGCACTTTAAATTTAAAAAA
B19: GTGCAC_site9970 (dsDNA)
DNA 1: ACTGTAATATTGAAAGTGCATTAAAGTGTATATTAT
DNA 2: ATAATATACACTTTAATGCACTTTCAATATTACAGT
B20: GTGCAC_site9773 (dsDNA)
DNA 1: TTAAAAATTATATAAGTGCATTAATATTTAGAACAA
DNA 2: TTGTTCTAAATATTAATGCACTTATATAATTTTTAA
B21: GTGCAC_site9491 (dsDNA)
DNA 1: AATAATAAAATAAAAGTGCATTAATTATAATTCTTT
DNA 2: AAAGAATTATAATTAATGCACTTTTATTTTATTATT
B22: GTGCAC_site10204 (dsDNA)
DNA 1: GGAAAATACATTCCAGTGCATTAATTTATTCAACGT
DNA 2: ACGTTGAATAAATTAATGCACTGGAATGTATTTTCC
B23: GTGCAC_site10102 (dsDNA)
DNA 1: TATATTTATATATTAGTGCACTTTTTGTTAATTTTT
DNA 2: AAAAATTAACAAAAAGTGCACTAATATATAAATATA
B24: GTGCAC_site10757 (dsDNA)
DNA 1: TATTAATTTCGGGAAGTGCATTATGTTTATAGAATA
DNA 2: TATTCTATAAACATAATGCACTTCCCGAAATTAATA
B25: GTGCAC_site9926 (dsDNA)
DNA 1: GCAGCAGCATTTTCAGTGCATTATTATATTGTTCAT
DNA 2: ATGAACAATATAATAATGCACTGAAAATGCTGCTGC
B26: GTGCAC_site10692 (dsDNA)
DNA 1: ATTATTTATATTATGGTGCATAATTTTGGGTTTCTT
DNA 2: AAGAAACCCAAAATTATGCACCATAATATAAATAAT
B27: GTGCAC_site10289 (dsDNA)
DNA 1: TTTAAAATACAGAAGGTGCATTTAACATATTTGTAT
DNA 2: ATACAAATATGTTAAATGCACCTTCTGTATTTTAAA
B28: GTGCAC_site9746 (dsDNA)
DNA 1: TATAATTAATTAGAAGTGCATTAGGTAACAACTGTC
DNA 2: GACAGTTGTTACCTAATGCACTTCTAATTAATTATA
B29: GTGCAC_site9995 (dsDNA)
DNA 1: AAAGGAAAAATCCAAGTGCATTATTATTTTCACAAA
DNA 2: TTTGTGAAAATAATAATGCACTTGGATTTTTCCTTT
B30: GTGCAC_site9974 (dsDNA)
DNA 1: ATATGAAGTTATATAGTGCACATGTACAACCAAATC
DNA 2: GATTTGGTTGTACATGTGCACTATATAACTTCATAT
B31: GTGCAC_site9417 (dsDNA)
DNA 1: TAATATTATTTTTCAGTGCAATATAACCTTAGAATT
DNA 2: AATTCTAAGGTTATATTGCACTGAAAAATAATATTA
B32: GTGCAC_site9462 (dsDNA)
DNA 1: AACTGTACAATTTTTGTGCACAATAATTATTAATAT
DNA 2: ATATTAATAATTATTGTGCACAAAAATTGTACAGTT

Target: AP2-I D3 (Plasmodium falciparum, UniProt Q8IJW6 910-1027)
Test: gcPBM; about 25 ug protein; PBS, 1% milk, 0.2 mg/ml BSA, salmon testes DNA, 0.03% Triton X-100
Settings: tags: N-terminal GST (pGEX-4T-1), kept; label: surface-attached array probe

Binder	binding signal
B1	12.1 ln median PBM intensity, better of two orientations
B2	12.1 ln median PBM intensity, better of two orientations
B3	12 ln median PBM intensity, better of two orientations
B4	12 ln median PBM intensity, better of two orientations
B5	12 ln median PBM intensity, better of two orientations
B6	12 ln median PBM intensity, better of two orientations
B7	12 ln median PBM intensity, better of two orientations
B8	12 ln median PBM intensity, better of two orientations
B9	12 ln median PBM intensity, better of two orientations
B10	12 ln median PBM intensity, better of two orientations
B11	12 ln median PBM intensity, better of two orientations
B12	12 ln median PBM intensity, better of two orientations
B13	12 ln median PBM intensity, better of two orientations
B14	12 ln median PBM intensity, better of two orientations
B15	12 ln median PBM intensity, better of two orientations
B16	12 ln median PBM intensity, better of two orientations

Binder	binding signal
B17	12 ln median PBM intensity, better of two orientations
B18	12 ln median PBM intensity, better of two orientations
B19	12 ln median PBM intensity, better of two orientations
B20	12 ln median PBM intensity, better of two orientations
B21	11.9 ln median PBM intensity, better of two orientations
B22	11.8 ln median PBM intensity, better of two orientations
B23	11.8 ln median PBM intensity, better of two orientations
B24	11.7 ln median PBM intensity, better of two orientations
B25	11.6 ln median PBM intensity, better of two orientations
B26	11.6 ln median PBM intensity, better of two orientations
B27	11.6 ln median PBM intensity, better of two orientations
B28	11.5 ln median PBM intensity, better of two orientations
B29	11.4 ln median PBM intensity, better of two orientations
B30	11.4 ln median PBM intensity, better of two orientations
B31	11.3 ln median PBM intensity, better of two orientations
B32	11.3 ln median PBM intensity, better of two orientations
